For one substance, percent co-depleted results are on record in publication PMC4615894.

This experiment has as its target CENP-W (Xenopus (endogenous in egg extract)). Briefly: co-IP.

As to CENP-C (natural protein), the percent co-depleted is 80%.
